In publication PMC5758567 (2018):

Columns and labels:
[1] = target: T1, PDE6 (lower-affinity site) (Bos taurus, UniProt P11541); assay: activity titration
T1 chain 1: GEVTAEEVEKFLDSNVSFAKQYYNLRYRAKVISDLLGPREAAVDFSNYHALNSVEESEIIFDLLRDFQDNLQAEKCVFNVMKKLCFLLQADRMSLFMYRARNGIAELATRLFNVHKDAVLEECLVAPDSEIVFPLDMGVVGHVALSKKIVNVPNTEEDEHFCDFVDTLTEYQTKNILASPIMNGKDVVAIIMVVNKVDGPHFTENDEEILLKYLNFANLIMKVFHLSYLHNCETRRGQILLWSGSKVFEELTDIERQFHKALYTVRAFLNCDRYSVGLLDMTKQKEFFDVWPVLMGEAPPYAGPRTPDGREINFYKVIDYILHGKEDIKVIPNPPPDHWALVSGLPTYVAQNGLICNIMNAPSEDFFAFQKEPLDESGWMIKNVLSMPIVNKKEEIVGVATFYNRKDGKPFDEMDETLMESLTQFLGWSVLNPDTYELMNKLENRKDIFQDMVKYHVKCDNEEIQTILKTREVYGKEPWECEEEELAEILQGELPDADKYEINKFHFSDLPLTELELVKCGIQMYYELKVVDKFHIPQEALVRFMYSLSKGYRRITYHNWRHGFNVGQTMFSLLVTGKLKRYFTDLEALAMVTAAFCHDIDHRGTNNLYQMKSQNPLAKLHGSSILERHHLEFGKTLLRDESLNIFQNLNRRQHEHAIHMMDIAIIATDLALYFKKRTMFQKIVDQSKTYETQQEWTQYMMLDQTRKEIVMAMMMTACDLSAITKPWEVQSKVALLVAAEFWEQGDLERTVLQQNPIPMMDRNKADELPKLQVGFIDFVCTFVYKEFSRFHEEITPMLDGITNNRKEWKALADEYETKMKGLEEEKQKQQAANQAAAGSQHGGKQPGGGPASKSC
T1 chain 2: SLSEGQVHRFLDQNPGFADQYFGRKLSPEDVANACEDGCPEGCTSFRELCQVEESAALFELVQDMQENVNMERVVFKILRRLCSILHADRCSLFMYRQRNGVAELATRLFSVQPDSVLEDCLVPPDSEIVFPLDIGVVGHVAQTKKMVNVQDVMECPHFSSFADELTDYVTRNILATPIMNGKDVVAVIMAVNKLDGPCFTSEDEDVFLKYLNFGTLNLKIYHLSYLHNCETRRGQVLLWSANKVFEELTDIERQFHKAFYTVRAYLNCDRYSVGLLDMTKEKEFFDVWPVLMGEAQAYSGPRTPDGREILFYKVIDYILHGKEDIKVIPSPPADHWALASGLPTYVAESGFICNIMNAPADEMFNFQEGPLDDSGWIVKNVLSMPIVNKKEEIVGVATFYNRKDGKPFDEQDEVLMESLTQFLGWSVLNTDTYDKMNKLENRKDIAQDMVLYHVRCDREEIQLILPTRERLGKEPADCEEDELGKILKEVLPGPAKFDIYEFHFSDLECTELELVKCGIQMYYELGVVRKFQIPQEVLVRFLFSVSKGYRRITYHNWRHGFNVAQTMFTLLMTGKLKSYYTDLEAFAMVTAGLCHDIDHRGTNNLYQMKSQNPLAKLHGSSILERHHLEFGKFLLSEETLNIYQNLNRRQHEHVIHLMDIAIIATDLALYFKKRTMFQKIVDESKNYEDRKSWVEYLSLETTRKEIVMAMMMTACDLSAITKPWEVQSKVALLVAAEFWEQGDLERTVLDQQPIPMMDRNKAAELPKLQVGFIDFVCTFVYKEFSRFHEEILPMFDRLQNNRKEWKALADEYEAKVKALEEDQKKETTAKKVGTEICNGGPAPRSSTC

[2] = target: T2, PDE6 (higher-affinity site) (Bos taurus, UniProt P11541); assay: activity titration
T2 chain 1: T1 chain 1
T2 chain 2: T1 chain 2

- Kd [1]: 700 nM
- Kd [2]: 40 nM
B1: PrBP/δ (protein)
chain: MSAKDERAREILRGFKLNWMNLRDAETGKILWQGTEDLSVPGVEHEARVPKKILKCKAVSRELNFSSTEQMEKFRLEQKVYFKGQCLEEWFFEFGFVIPNSTNTWQSLIEAAPESQMMPASVLTGNVIIETKFFDDDLLVSTSRVRLFYV
